Literature values as cited in publication PMC10878502.

How the values were obtained:
[1] = target: iASPP ANK-SH3 (Homo sapiens) (UniProt Q8WUF5)
[2] = target: ASPP2 ANK-SH3 (Homo sapiens) (UniProt Q13625)
ASPP1 (Homo sapiens) = ASPP1 (Homo sapiens) (UniProt Q96KQ4)
ASPP2 (Homo sapiens) = ASPP2 (Homo sapiens) (UniProt Q13625)
ASPP2 (Homo sapiens), sequence (Q13625 whole entry): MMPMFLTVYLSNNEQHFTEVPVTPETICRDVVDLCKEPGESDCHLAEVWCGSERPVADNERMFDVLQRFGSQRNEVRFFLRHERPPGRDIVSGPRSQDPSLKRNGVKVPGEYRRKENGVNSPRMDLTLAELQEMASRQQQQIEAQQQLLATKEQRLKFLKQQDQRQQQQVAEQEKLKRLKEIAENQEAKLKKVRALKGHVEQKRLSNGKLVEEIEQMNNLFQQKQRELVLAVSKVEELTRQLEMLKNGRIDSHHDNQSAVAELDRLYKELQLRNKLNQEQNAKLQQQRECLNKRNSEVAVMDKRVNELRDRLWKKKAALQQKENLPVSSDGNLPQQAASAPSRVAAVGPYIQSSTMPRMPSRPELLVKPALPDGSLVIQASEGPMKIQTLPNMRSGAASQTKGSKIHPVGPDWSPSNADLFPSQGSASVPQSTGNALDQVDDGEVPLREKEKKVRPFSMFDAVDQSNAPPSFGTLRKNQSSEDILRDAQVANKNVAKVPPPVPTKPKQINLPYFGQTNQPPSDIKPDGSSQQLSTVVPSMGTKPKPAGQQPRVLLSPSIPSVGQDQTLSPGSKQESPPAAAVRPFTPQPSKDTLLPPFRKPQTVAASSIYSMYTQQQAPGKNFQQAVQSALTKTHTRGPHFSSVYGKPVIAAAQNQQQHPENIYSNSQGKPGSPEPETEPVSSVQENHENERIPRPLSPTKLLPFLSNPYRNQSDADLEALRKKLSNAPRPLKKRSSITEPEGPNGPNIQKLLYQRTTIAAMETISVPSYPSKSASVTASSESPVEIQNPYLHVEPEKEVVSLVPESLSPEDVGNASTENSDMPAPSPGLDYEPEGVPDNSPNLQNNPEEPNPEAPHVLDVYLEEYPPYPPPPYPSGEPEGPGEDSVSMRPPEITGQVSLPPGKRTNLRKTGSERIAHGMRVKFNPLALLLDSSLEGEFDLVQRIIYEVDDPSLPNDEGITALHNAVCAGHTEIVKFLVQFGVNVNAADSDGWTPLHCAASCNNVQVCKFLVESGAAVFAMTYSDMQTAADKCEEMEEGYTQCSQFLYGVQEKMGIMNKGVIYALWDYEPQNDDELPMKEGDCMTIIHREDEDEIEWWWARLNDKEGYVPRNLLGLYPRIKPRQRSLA

ASPP2 ANK-SH3 (Homo sapiens), sequence (Q13625 892-1128): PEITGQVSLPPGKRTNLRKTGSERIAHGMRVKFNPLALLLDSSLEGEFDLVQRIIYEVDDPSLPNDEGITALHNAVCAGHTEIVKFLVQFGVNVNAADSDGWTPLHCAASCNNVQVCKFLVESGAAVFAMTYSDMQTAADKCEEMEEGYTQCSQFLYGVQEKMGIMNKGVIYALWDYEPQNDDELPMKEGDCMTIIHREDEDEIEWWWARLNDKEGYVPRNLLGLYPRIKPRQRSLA
ASPP1 (Homo sapiens), sequence (Q96KQ4 whole entry): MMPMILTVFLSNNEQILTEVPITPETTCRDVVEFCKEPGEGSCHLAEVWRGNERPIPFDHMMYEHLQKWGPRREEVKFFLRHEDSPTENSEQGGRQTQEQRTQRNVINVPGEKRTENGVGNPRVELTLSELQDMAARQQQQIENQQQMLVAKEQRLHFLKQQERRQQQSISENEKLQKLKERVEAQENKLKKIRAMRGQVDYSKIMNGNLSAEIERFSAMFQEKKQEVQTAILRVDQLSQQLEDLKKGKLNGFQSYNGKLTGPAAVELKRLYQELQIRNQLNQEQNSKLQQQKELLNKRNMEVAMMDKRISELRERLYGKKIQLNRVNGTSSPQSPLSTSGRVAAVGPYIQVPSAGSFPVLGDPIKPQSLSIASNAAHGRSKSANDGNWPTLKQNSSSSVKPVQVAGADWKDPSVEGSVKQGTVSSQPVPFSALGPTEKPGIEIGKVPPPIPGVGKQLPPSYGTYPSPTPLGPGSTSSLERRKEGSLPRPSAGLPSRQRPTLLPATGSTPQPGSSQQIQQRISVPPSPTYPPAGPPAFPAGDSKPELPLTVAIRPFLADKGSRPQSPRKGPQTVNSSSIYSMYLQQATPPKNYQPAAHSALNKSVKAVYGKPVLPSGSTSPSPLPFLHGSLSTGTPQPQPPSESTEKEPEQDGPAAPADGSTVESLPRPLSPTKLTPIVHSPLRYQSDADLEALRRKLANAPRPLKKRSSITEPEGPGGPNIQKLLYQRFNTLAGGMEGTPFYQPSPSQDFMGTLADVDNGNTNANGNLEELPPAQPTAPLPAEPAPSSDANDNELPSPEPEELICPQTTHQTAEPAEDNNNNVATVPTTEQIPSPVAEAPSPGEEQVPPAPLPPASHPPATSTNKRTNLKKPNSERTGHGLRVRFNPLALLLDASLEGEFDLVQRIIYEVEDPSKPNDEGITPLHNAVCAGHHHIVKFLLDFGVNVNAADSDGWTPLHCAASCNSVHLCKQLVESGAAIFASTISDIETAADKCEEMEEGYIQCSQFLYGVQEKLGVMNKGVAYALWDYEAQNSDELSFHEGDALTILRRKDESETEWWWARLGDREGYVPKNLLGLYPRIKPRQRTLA
iASPP ANK-SH3 (Homo sapiens), sequence (Q8WUF5 608-828): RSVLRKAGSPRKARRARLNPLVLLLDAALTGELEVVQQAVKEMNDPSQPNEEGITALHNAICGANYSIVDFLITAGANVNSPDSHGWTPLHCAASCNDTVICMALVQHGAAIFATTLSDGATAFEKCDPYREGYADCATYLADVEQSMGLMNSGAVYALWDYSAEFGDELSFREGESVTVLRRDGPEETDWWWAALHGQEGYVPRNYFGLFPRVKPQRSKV

Row | Substance | Kd [1] [nM] | Kd [2] [nM] | Kd (ASPP1 (Homo sapiens)) [nM] | Kd (ASPP2 (Homo sapiens)) [nM]
1 | p53 DBD (from UniProt P04637) | 23.3 | 26.4 |  | 
2 | p53 (from UniProt P04637) |  |  | 500 | 5000
